This note sets out measurements from the Immune Epitope Database (IEDB).

Among the targets are HLA-A*11:01; HLA-A*68:01; HLA-A*03:01; HLA-A*33:01; HLA-A*31:01.
Holding throughout (assay): IEDB peptide-MHC binding, purified MHC/competitive/radioactivity; filed as Kd, often an IC50 or EC50 that approximates it; ≥ and ≤ were set here for values at or beyond the usual limits of such assays
The mark [1] stands for this setting: source organism: Dengue virus 3 Martinique/1243/1999.
The mark [2] stands for this setting: source organism: Dengue virus 4 Philippines/H241/1956.
Setting [3] is: source organism: Mammarenavirus whitewaterense.
Setting [4] is: source organism: Dengue virus 2 Peru/IQT2913/1996.
[5] abbreviates: source organism: Vaccinia virus WR.
Where [6] appears, read: source organism: Lassa virus Josiah.
Setting [7] is: source organism: Lymphocytic choriomeningitis virus (strain Armstrong).
Where [8] appears, read: source organism: SARS coronavirus Tor2.
Where [9] appears, read: source organism: Mammarenavirus brazilense.

pKd: −log10 of the molar value. Some results are limits rather than exact numbers.

In general, pKd refers to the Kd on a negative log10 scale, so that one unit is a factor of ten. ITANPVVTK: the pKd in the assay with HLA-A*11:01 (setting [1]) was 7.65; with HLA-A*68:01 (setting [1]) it was 7.32; in the assay with HLA-A*03:01 (setting [1]), 7.74.
Turning to SIFAGHLKCR, in the assay with HLA-A*33:01 (setting [1]), the pKd was 6.94.
Regarding KLGEFGRAK, the pKd with HLA-A*03:01 (setting [2]) is 8.76.
Take PMPCMINDTH: the negative-log Kd (pKd) with HLA-A*11:01 (setting [3]) is not above 4.16; with HLA-A*33:01 (setting [3]), not above 4.15; in the assay with HLA-A*68:01 (setting [3]) it was not above 4.15; in the assay with HLA-A*03:01 (setting [3]) it was not above 4.15; with HLA-A*31:01 (setting [3]) it was not above 4.15.
Consider IFLFLMSGR, for which the pKd in the assay with HLA-A*33:01 (setting [4]) was 8.00; with HLA-A*31:01 (setting [4]), 7.22.
Take ELGELIGVNY: the pKd is not above 4.16 with HLA-A*11:01 (setting [5]); not above 4.15 with HLA-A*33:01 (setting [5]); not above 4.42 with HLA-A*68:01 (setting [5]); not above 4.15 with HLA-A*03:01 (setting [5]); not above 4.15 in the assay with HLA-A*31:01 (setting [5]).
Consider TCQGSDDIRK, for which the pKd with HLA-A*11:01 (setting [6]) was 5.15; with HLA-A*33:01 (setting [6]) it was not above 4.15; with HLA-A*68:01 (setting [6]) it was 5.24; in the assay with HLA-A*03:01 (setting [6]), not above 4.15; with HLA-A*31:01 (setting [6]), not above 4.30.
For FLALGFFLR, the pKd with HLA-A*33:01 (setting [1]) was 7.58; with HLA-A*68:01 (setting [1]), 8.67; with HLA-A*31:01 (setting [1]), 7.37.
Take ISGIGTFLHY: the pKd is 6.44 with HLA-A*11:01 (setting [5]); 4.86 in the assay with HLA-A*33:01 (setting [5]); 4.71 in the assay with HLA-A*68:01 (setting [5]); 6.45 in the assay with HLA-A*03:01 (setting [5]); not above 4.22 with HLA-A*31:01 (setting [5]).
In the case of IVMLHTTER, the results for the pKd in the assay with HLA-A*33:01 (setting [2]), in the assay with HLA-A*68:01 (setting [2]) and with HLA-A*31:01 (setting [2]) were 7.86, 7.71 and 8.63, respectively.
With YVPSAEDNY, the pKd was not above 4.11 with HLA-A*11:01 (setting [5]); not above 4.11 in the assay with HLA-A*33:01 (setting [5]); not above 4.44 with HLA-A*68:01 (setting [5]); not above 4.11 with HLA-A*03:01 (setting [5]); not above 4.11 with HLA-A*31:01 (setting [5]).
With IITVGMLIY, the negative logarithm of the Kd (pKd) was 5.17 with HLA-A*11:01 (setting [5]); 5.94 in the assay with HLA-A*33:01 (setting [5]); 6.22 in the assay with HLA-A*68:01 (setting [5]); 5.82 with HLA-A*03:01 (setting [5]); 5.97 with HLA-A*31:01 (setting [5]).
As for TLYICDKQSH, the pKd with HLA-A*11:01 (setting [7]) is not above 4.32; with HLA-A*33:01 (setting [7]) it was not above 4.15; with HLA-A*68:01 (setting [7]) it was not above 4.15; with HLA-A*03:01 (setting [7]), 4.82; with HLA-A*31:01 (setting [7]) it was not above 4.46.
Turning to DMISYGGGWR, the pKd with HLA-A*33:01 (setting [2]) was 6.30.
Take FCKSCWFENK: the pKd with HLA-A*33:01 (setting [6]) is 5.04; in the assay with HLA-A*03:01 (setting [6]), not above 4.70; with HLA-A*31:01 (setting [6]), 5.61.
Regarding RLVEEFFNR, the negative-log Kd (pKd) with HLA-A*11:01 (setting [5]) is 7.06; with HLA-A*33:01 (setting [5]) it was 6.10; with HLA-A*68:01 (setting [5]) it was 7.53; in the assay with HLA-A*03:01 (setting [5]), 7.67; with HLA-A*31:01 (setting [5]) it was 8.86.
Regarding NFITKEIKNR, the pKd with HLA-A*11:01 (setting [5]) is not above 4.16; in the assay with HLA-A*33:01 (setting [5]) it was 6.77; with HLA-A*68:01 (setting [5]), 6.28; with HLA-A*03:01 (setting [5]), not above 4.15; in the assay with HLA-A*31:01 (setting [5]) it was 5.97.
Taken in the same sequence, the figures for SVQLSNNKY were 7.48, 4.87, 5.90, 5.57 and 4.76.
For EQNLTDTNFK, in that order: 5.90, not above 4.22, 6.17, 4.75 and not above 4.15.
As to TAMAFHLSTR, the values for the pKd in the assay with HLA-A*33:01 (setting [2]), with HLA-A*68:01 (setting [2]) and with HLA-A*31:01 (setting [2]) were 7.78, 8.07 and 7.46, respectively.
For FTFGDTALY, the negative logarithm of the Kd (pKd) with HLA-A*11:01 (setting [5]) was 6.72; in the assay with HLA-A*33:01 (setting [5]) it was not above 4.30; in the assay with HLA-A*68:01 (setting [5]), 8.64; with HLA-A*03:01 (setting [5]) it was 6.21; with HLA-A*31:01 (setting [5]), 4.84.
Consider ILARWSSFKK, for which the pKd in the assay with HLA-A*03:01 (source organism: Dengue virus 1 Brazil/97-11/1997) was 8.86.
As for CLFDRYFKY, the pKd with HLA-A*11:01 (setting [8]) is 9.23; with HLA-A*33:01 (setting [8]), 5.81; in the assay with HLA-A*68:01 (setting [8]), 6.86; in the assay with HLA-A*03:01 (setting [8]) it was 8.84; with HLA-A*31:01 (setting [8]), 6.67.
As for NYILCYRKPH, the pKd was not above 4.16 in the assay with HLA-A*11:01 (setting [9]); 5.66 in the assay with HLA-A*33:01 (setting [9]); not above 4.61 in the assay with HLA-A*68:01 (setting [9]); 5.27 in the assay with HLA-A*03:01 (setting [9]); 4.94 with HLA-A*31:01 (setting [9]).
As for TTDDLVKSY, the pKd with HLA-A*11:01 (setting [5]) was 6.13; with HLA-A*33:01 (setting [5]), 4.74; with HLA-A*68:01 (setting [5]), 4.92; with HLA-A*03:01 (setting [5]), not above 4.28; with HLA-A*31:01 (setting [5]), 5.33.
On to LISYGGGWK, for which, in the assay with HLA-A*03:01 (source organism: Dengue virus 2 Jamaica/1409/1983), the pKd was 6.47.
As to MAVEVGSIR, the pKd in the assay with HLA-A*11:01 (setting [5]) is 7.40; in the assay with HLA-A*33:01 (setting [5]) it was 6.61; with HLA-A*68:01 (setting [5]), 8.87; in the assay with HLA-A*03:01 (setting [5]), not above 4.11; in the assay with HLA-A*31:01 (setting [5]) it was 6.55.
Turning to NATFFIFNK, the pKd was 7.06 with HLA-A*11:01 (setting [8]); 7.06 with HLA-A*33:01 (setting [8]); 7.71 with HLA-A*68:01 (setting [8]); 6.41 in the assay with HLA-A*03:01 (setting [8]); 5.77 in the assay with HLA-A*31:01 (setting [8]).
